We go through four substances from patent EP0835662A2.

The target in assay [1] is receptor with a moderately high affinity for Substance P on primary tumor cells of human colon adenocarcinoma (human). Put plainly: 125I-Substance P receptor-ligand assay on cells, Scatchard (LIGAND); culture PTC-4.
Assay [2] shares this target. Put plainly: 125I-Substance P receptor-ligand assay on cells, Scatchard (LIGAND); culture PTC-8.
The target is the same in assay [3]. Put plainly: 125I-Substance P receptor-ligand assay on cells, Scatchard (LIGAND); culture PTC-6.
For assay [4] the target is unchanged. The experiment in a line: 125I-Substance P receptor-ligand assay on cells, Scatchard (LIGAND); culture PTC-1.
Assay [5] has the same target. Put plainly: 125I-Substance P receptor-ligand assay on cells, Scatchard (LIGAND); culture PTC-7.
Assay [6] has the same target. The experiment in a line: 125I-Substance P receptor-ligand assay on cells, Scatchard (LIGAND); culture PTC-2.
Assay [7] shares this target. The experiment in a line: 125I-Substance P receptor-ligand assay on cells, Scatchard (LIGAND); culture PTC-5.
Assay [8] has the same target. Put plainly: 125I-Substance P receptor-ligand assay on cells, Scatchard (LIGAND); culture PTC-3.
Assay [9] deals with high-affinity receptor for bombesin on primary tumor cells of human colon adenocarcinoma (human). The experiment in a line: 125I-bombesin receptor-ligand assay on cells, Scatchard (LIGAND); culture PTC-8.
Assay [10] shares this target. Put plainly: 125I-bombesin receptor-ligand assay on cells, Scatchard (LIGAND); culture PTC-7.
The target is the same in assay [11]. The experiment in a line: 125I-bombesin receptor-ligand assay on cells, Scatchard (LIGAND); culture PTC-5.
Assay [12] shares this target. The experiment in a line: 125I-bombesin receptor-ligand assay on cells, Scatchard (LIGAND); culture PTC-2.
For assay [13] the target is unchanged. The experiment in a line: 125I-bombesin receptor-ligand assay on cells, Scatchard (LIGAND); culture PTC-3.
Assay [14] has the same target. The experiment in a line: 125I-bombesin receptor-ligand assay on cells, Scatchard (LIGAND); culture PTC-6.
Assay [15] has the same target. The experiment in a line: 125I-bombesin receptor-ligand assay on cells, Scatchard (LIGAND); culture PTC-4.
Assay [16] shares this target. Put plainly: 125I-bombesin receptor-ligand assay on cells, Scatchard (LIGAND); culture PTC-1.
The target in assay [17] is receptor with a moderately high affinity for somatostatin on primary tumor cells of human colon adenocarcinoma (human). Put plainly: 125I-somatostatin receptor-ligand assay on cells, Scatchard (LIGAND); culture PTC-8.
Assay [18] addresses high-affinity receptor for somatostatin on primary tumor cells of human colon adenocarcinoma (human). Described as above.
The target of assay [19] is receptor with a moderately high affinity for somatostatin on primary tumor cells of human colon adenocarcinoma (human). The experiment in a line: 125I-somatostatin receptor-ligand assay on cells, Scatchard (LIGAND); culture PTC-2.
Assay [20] has as its target high-affinity receptor for somatostatin on primary tumor cells of human colon adenocarcinoma (human). The assay is described as above.
The target in assay [21] is receptor with a moderately high affinity for somatostatin on primary tumor cells of human colon adenocarcinoma (human). The experiment in a line: 125I-somatostatin receptor-ligand assay on cells, Scatchard (LIGAND); culture PTC-1.
Assay [22] has as its target high-affinity receptor for somatostatin on primary tumor cells of human colon adenocarcinoma (human). The description is as above.
Assay [23] deals with receptor with a moderately high affinity for somatostatin on primary tumor cells of human colon adenocarcinoma (human). The experiment in a line: 125I-somatostatin receptor-ligand assay on cells, Scatchard (LIGAND); culture PTC-5.
Assay [24] has as its target high-affinity receptor for somatostatin on primary tumor cells of human colon adenocarcinoma (human). The assay is described as above.
For assay [25], the target named is receptor with a moderately high affinity for somatostatin on primary tumor cells of human colon adenocarcinoma (human). Put plainly: 125I-somatostatin receptor-ligand assay on cells, Scatchard (LIGAND); culture PTC-4.
Assay [26] concerns the target high-affinity receptor for somatostatin on primary tumor cells of human colon adenocarcinoma (human). The description is as above.
Assay [27] has as its target receptor with a moderately high affinity for somatostatin on primary tumor cells of human colon adenocarcinoma (human). Put plainly: 125I-somatostatin receptor-ligand assay on cells, Scatchard (LIGAND); culture PTC-6.
Assay [28] has as its target high-affinity receptor for somatostatin on primary tumor cells of human colon adenocarcinoma (human). Described as above.
In assay [29] the target is receptor with a moderately high affinity for somatostatin on primary tumor cells of human colon adenocarcinoma (human). The experiment in a line: 125I-somatostatin receptor-ligand assay on cells, Scatchard (LIGAND); culture PTC-3.
The target of assay [30] is high-affinity receptor for somatostatin on primary tumor cells of human colon adenocarcinoma (human). The assay is described as above.
The target in assay [31] is receptor with a moderately high affinity for somatostatin on primary tumor cells of human colon adenocarcinoma (human). The experiment in a line: 125I-somatostatin receptor-ligand assay on cells, Scatchard (LIGAND); culture PTC-7.
The target of assay [32] is high-affinity receptor for somatostatin on primary tumor cells of human colon adenocarcinoma (human). The description is as above.
Assay [33] deals with receptor with a moderately high affinity for VIP on primary tumor cells of human colon adenocarcinoma (human). The experiment in a line: 125I-VIP receptor-ligand assay on cells, Scatchard (LIGAND); culture PTC-1.
For assay [34], the target named is high-affinity receptor for VIP on primary tumor cells of human colon adenocarcinoma (human). The description is as above.
The target of assay [35] is receptor with a moderately high affinity for VIP on primary tumor cells of human colon adenocarcinoma (human). The experiment in a line: 125I-VIP receptor-ligand assay on cells, Scatchard (LIGAND); culture PTC-3.
In assay [36] the target is high-affinity receptor for VIP on primary tumor cells of human colon adenocarcinoma (human). The description is as above.
Assay [37] addresses receptor with a moderately high affinity for VIP on primary tumor cells of human colon adenocarcinoma (human). The experiment in a line: 125I-VIP receptor-ligand assay on cells, Scatchard (LIGAND); culture PTC-5.
The target of assay [38] is high-affinity receptor for VIP on primary tumor cells of human colon adenocarcinoma (human). Described as above.
In assay [39] the target is receptor with a moderately high affinity for VIP on primary tumor cells of human colon adenocarcinoma (human). The experiment in a line: 125I-VIP receptor-ligand assay on cells, Scatchard (LIGAND); culture PTC-6.
Assay [40] addresses high-affinity receptor for VIP on primary tumor cells of human colon adenocarcinoma (human). The description is as above.
The target of assay [41] is receptor with a moderately high affinity for VIP on primary tumor cells of human colon adenocarcinoma (human). The experiment in a line: 125I-VIP receptor-ligand assay on cells, Scatchard (LIGAND); culture PTC-8.
For assay [42], the target named is high-affinity receptor for VIP on primary tumor cells of human colon adenocarcinoma (human). The description is as above.
Assay [43] concerns the target receptor with a moderately high affinity for VIP on primary tumor cells of human colon adenocarcinoma (human). The experiment in a line: 125I-VIP receptor-ligand assay on cells, Scatchard (LIGAND); culture PTC-7.
In assay [44] the target is high-affinity receptor for VIP on primary tumor cells of human colon adenocarcinoma (human). The description is as above.
Assay [45] deals with receptor with a moderately high affinity for VIP on primary tumor cells of human colon adenocarcinoma (human). The experiment in a line: 125I-VIP receptor-ligand assay on cells, Scatchard (LIGAND); culture PTC-2.
Assay [46] addresses high-affinity receptor for VIP on primary tumor cells of human colon adenocarcinoma (human). The description is as above.
In assay [47] the target is receptor with a moderately high affinity for VIP on primary tumor cells of human colon adenocarcinoma (human). Put plainly: 125I-VIP receptor-ligand assay on cells, Scatchard (LIGAND); culture PTC-4.
Assay [48] concerns the target high-affinity receptor for VIP on primary tumor cells of human colon adenocarcinoma (human). The assay is described as above.

By Kd is commonly meant the constant that tells how readily two partners part at equilibrium. A low value points to tighter binding. Consider “Substance P (from UniProt P20366 58-68) (peptide)”, for which the dissociation constant (Kd) in [1] worked out at 154 nM; in assay [2], 186 nM; in assay [3] it was 234 nM; in assay [4], 154 nM; in assay [5], 26.2 nM; in assay [6] it was 172 nM. Also, the Kd in [7] was found to be 21 nM; in assay [8], 134 nM. The R(M/L) receptor number in assay [1] was found to be 1.66e-08 M/L; in [2], 1.32e-08 M/L; in assay [3], 2.95e-08 M/L; in [4] it was 1.85e-08 M/L; in [5], 7.48e-09 M/L; in assay [6], 1.71e-08 M/L. The R(M/L) receptor number came to 6.2e-09 M/L in [7] and 1.49e-08 M/L in assay [8].
bombesin (peptide): the Kd in assay [9] amounted to 0.883 nM; in [10], 0.67 nM; in [11], 0.462 nM; in assay [12], 0.593 nM; in assay [13], 0.569 nM; in assay [14], 0.485 nM. Besides, the Kd in assay [15] was found to be 0.568 nM; in [16] it was 0.439 nM. The R(M/L) receptor number in assay [9] was 2.85e-10 M/L; in assay [10] it was 2.55e-10 M/L; in assay [11], 3.35e-10 M/L; in assay [12] it was 3.22e-10 M/L; in [13] it was 2.97e-10 M/L; in assay [14], 2.24e-10 M/L. Also, the R(M/L) receptor number in assay [15] came out at 2.89e-10 M/L; in assay [16] it was 2.24e-10 M/L.
For the substance “somatostatin (from UniProt P61278 103-116) (peptide)”, the Kd in [17] was determined as 99.2 nM; in assay [18], 0.964 nM; in assay [19], 63.5 nM; in [20], 0.17 nM; in [21], 93.7 nM; in assay [22], 0.323 nM. Moreover, the Kd in [23] turned out to be 15.4 nM; in [24], 0.378 nM; in assay [25], 56.4 nM; in [26], 0.0865 nM; in [28] it was 0.545 nM; in assay [29] it was 134 nM. Further, the Kd worked out at 1.15 nM in [30], 128 nM in assay [31] and 1.11 nM in assay [32]. In addition, the R(M/L) receptor number in assay [17] turned out to be 6.59e-09 M/L; in [18], 1.74e-10 M/L; in assay [19], 2.24e-09 M/L; in [20], 8.99e-11 M/L; in [21], 4.41e-09 M/L; in assay [22], 6.01e-11 M/L. In addition, the R(M/L) receptor number in assay [23] is 1.24e-09 M/L; in [24], 5.82e-11 M/L; in assay [25], 2.75e-09 M/L; in assay [26] it was 4.66e-11 M/L; in [27], 1.16e-09 M/L; in assay [28], 6.85e-11 M/L. Further, the R(M/L) receptor number worked out at 5.09e-09 M/L in assay [29], 1.06e-10 M/L in assay [30], 3.89e-09 M/L in [31] and 9.81e-11 M/L in assay [32].
Turning to “vasoactive intestinal peptide (VIP) (from UniProt P01282 125-152)”, the Kd in [33] was determined as 633 nM; in [34] it was 1.04 nM; in assay [35], 1510 nM; in assay [36], 6.35 nM; in assay [37] it was 3510 nM; in [38], 19.5 nM. Also, the Kd in assay [39] was 1880 nM; in assay [40], 4.41 nM; in assay [41], 8420 nM; in [42], 1.78 nM; in assay [43], 555 nM; in assay [44], 1.49 nM. Also, the Kd in [45] amounted to 423 nM; in assay [46], 1.45 nM; in [47], 945 nM; in assay [48] it was 11 nM. Further, the R(M/L) receptor number in assay [33] stood at 1.78e-08 M/L; in assay [34], 4.83e-11 M/L; in assay [35], 2.93e-08 M/L; in assay [36], 2.45e-10 M/L; in [37] it was 8.72e-08 M/L; in [38] it was 5.29e-10 M/L. The R(M/L) receptor number was determined as 3.21e-08 M/L in [39]; 1.05e-10 M/L in assay [40]; 8.49e-09 M/L in assay [41]; 1.5e-10 M/L in assay [42]; 9.37e-09 M/L in assay [43]; 6.12e-11 M/L in [44]. The R(M/L) receptor number in [45] stood at 1.03e-08 M/L; in [46], 6.23e-11 M/L; in assay [47], 5.03e-08 M/L; in [48], 2.75e-10 M/L.
